Measured values as given in publication PMC5638086, “Assessment of the protein interaction between coagulation factor XII and corn trypsin inhibitor by molecular docking and biochemical validation” (Journal of Thrombosis and Haemostasis, 2017).
Positions count from the first letter of the chain named. Names and notes keep the numbering of the source. Where a SMILES comes first, the peptide text is derived from it. Bridges are numbered along the chain shown (N, C = ends). Where no end group is shown, it is not given here.

What was measured:
[1] = molecular target: Full length activated FXIIa (α‐FXIIa) (UniProt P00748)
α‐FXIIa = molecular target: T1, α‐FXIIa (Homo sapiens, UniProt P00748); assay: α‐FXIIa enzymatic assay (S‐2302 chromogenic substrate cleavage, pNA release); format: biochemical; settings: for IC50 (M): IC50 corresponding to the pIC50; for pIC50 ± SE / IC50: 33 °C, SE of the fit, n = 3–5 independent experiments
T1 construct: purchased Enzyme Research Laboratories (Swansea, UK)
T1 sequence (P00748 373-615 limits assumed): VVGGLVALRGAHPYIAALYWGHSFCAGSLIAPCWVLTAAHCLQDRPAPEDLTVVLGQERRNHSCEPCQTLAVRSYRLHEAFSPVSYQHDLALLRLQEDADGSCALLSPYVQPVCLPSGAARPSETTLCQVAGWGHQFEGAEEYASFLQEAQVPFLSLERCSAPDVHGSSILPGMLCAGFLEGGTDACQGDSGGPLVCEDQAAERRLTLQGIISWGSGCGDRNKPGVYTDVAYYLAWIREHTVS
T1 sequence (P00748 20-372 partner limits assumed): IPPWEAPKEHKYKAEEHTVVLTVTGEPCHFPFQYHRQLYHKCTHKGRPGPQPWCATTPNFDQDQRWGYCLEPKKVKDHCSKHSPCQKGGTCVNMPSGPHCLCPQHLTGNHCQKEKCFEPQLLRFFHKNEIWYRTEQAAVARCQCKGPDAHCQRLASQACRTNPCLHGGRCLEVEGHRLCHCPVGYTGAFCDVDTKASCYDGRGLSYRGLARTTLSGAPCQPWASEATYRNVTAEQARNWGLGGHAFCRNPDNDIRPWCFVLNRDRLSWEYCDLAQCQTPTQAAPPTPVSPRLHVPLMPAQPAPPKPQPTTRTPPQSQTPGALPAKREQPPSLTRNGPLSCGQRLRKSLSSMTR
Method: The enzymatic activity of α‐FXIIa was measured by monitoring the amount of pNA chromophore released from substrate H‐D‐Pro‐Phe‐Arg‐pNA (S‐2302). Assays were performed in a 100‐μL volume at 33 °C in 96‐well plates in a Perkin Elmer (Seer Green, UK) Envision plate reader, and pNA release was followed over a period of 6 h by reading the absorbance at 405 nm. Absorbance values were converted to pNA concentrations by comparison with a standard curve obtained under exactly the same instrument conditions. All absorbance values were within the linear measurement range of the instrument. Initial rates were calculated on the basis of the first 30 min of incubation. To assess the K M, concentrations of substrate peptide between 0.1 mM and 0.6 mM were incubated with 10 nM α‐FXIIa, enzymatic activity was measured as described above, and data were analyzed by non‐linear regression with the Michaelis–Menten algorithm (GRAPHPAD PRISM, version 6.04). To assess the inhibitory mechanism of CTI, 30 nM CTI was incubated with these same concentrations of substrate peptide, the reaction was initiated by the addition of 10 nM α‐FXIIa, enzymatic activity was measured as described above, and data were analyzed by non‐linear regression with the Michaelis–Menten algorithm (GRAPHPAD PRISM, version 6.04) and by linear regression after Lineweaver–Burk transformation. To assay inhibitors, concentrations of CTI variant proteins between 10^−8 M and 10^−5 M or concentrations of peptides between 10^−6 M and 10^−3 M were incubated with 200 μM substrate peptide, the reaction was initiated by addition of 10 nM α‐FXIIa, enzymatic activity was measured as described above, and IC50 values were determined by non‐linear regression analysis (GRAPHPAD PRISM, version 6.04) using the log[inhibitor] versus response – variable slope algorithm with a bottom constraint.

[2] = synthetic peptides 10^−6 M to 10^−3 M
[3] = synthetic peptides 10^−6 M to 10^−3 M, 200 μM S‐2302, 10 nM α‐FXIIa, initial rate
[4] = synthetic peptides 10^−6 M to 10^−3 M, 200 μM S‐2302, 10 nM α‐FXIIa, initial rate, SEM
[5] = CTI variant proteins 10^−8 M to 10^−5 M, 200 μM S‐2302, 10 nM α‐FXIIa, initial rate of first 30 min, A405, SEM

rec‐CTI E39A (natural protein)
IC50 of inhibition of α‐FXIIa enzymatic activity (S‐2302 cleavage) [1]: 0.14 µM | pIC50 of inhibition of α‐FXIIa enzymatic activity (S‐2302 cleavage) [1]: 6.85

GISTAGPWRRRPPELLKVTY [Scrambled, scrambled control peptide]
IC50 (M) (α‐FXIIa; [2]): NIA | pIC50 ± SE (α‐FXIIa; [3]): NIA

YVTSRTAGIGPRLPWPELKRR [CTI(23–43)]
IC50 (α‐FXIIa; [4]): 1150 µM

RWYVTSRTAGIGPRLPWPELKR [CTI(21–42)]
IC50 (α‐FXIIa; [4]): 200 µM

rec‐CTI R42A/R43A (natural protein)
IC50 of inhibition of α‐FXIIa enzymatic activity (S‐2302 cleavage) [1]: 11 µM | pIC50 of inhibition of α‐FXIIa enzymatic activity (S‐2302 cleavage) [1]: 4.98

rec‐CTI L35A (natural protein)
IC50 of inhibition of α‐FXIIa enzymatic activity (S‐2302 cleavage) [1]: 4.9 µM | pIC50 of inhibition of α‐FXIIa enzymatic activity (S‐2302 cleavage) [1]: 5.31

rec‐CTI G32W (natural protein)
IC50 of inhibition of α‐FXIIa enzymatic activity (S‐2302 cleavage) [1]: 13 µM | pIC50 of inhibition of α‐FXIIa enzymatic activity (S‐2302 cleavage) [1]: 4.89

rec‐CTI W37A (natural protein)
IC50 of inhibition of α‐FXIIa enzymatic activity (S‐2302 cleavage) [1]: 0.11 µM | pIC50 of inhibition of α‐FXIIa enzymatic activity (S‐2302 cleavage) [1]: 6.97

CC[C@H](C)[C@@H]1NC(=O)CNC(=O)[C@H](C)NC(=O)[C@H]([C@@H](C)O)NC(=O)[C@H](CCCNC(=N)N)NC(=O)[C@H](CO)NC(=O)[C@H]([C@@H](C)O)NC(=O)[C@H](C(C)C)NC(=O)[C@H](Cc2ccc(O)cc2)NC(=O)[C@H](Cc2c[nH]c3ccccc23)NC(=O)[C@H](CCCNC(=N)N)NC(=O)[C@@H](N)CSSC[C@@H](C(=O)O)NC(=O)[C@H](CCCNC(=N)N)NC(=O)[C@H](CCCNC(=N)N)NC(=O)[C@H](CCCCN)NC(=O)[C@H](CC(C)C)NC(=O)[C@H](CCC(=O)O)NC(=O)[C@@H]2CCCN2C(=O)[C@H](Cc2c[nH]c3ccccc23)NC(=O)[C@@H]2CCCN2C(=O)[C@H](CC(C)C)NC(=O)[C@H](CCCNC(=N)N)NC(=O)[C@@H]2CCCN2C(=O)CNC1=O [CTI(20–44)] (H-CRWYVTSRTAGIGPRLPWPELKRRC-OH; disulfide 1-25; N-terminus and C-terminus assumed)
Fold reduction in inhibitory activity as compared with rec‐CTI (α‐FXIIa; synthetic peptides, relative to recombinant CTI): 2416 fold

rec‐CTI R27A/E39A (natural protein)
IC50 of inhibition of α‐FXIIa enzymatic activity (S‐2302 cleavage) [1]: 0.26 µM | pIC50 of inhibition of α‐FXIIa enzymatic activity (S‐2302 cleavage) [1]: 6.58

glutathione‐S‐transferase [GST, reference compound]
Inhibition of α‐FXIIa, result in words (α‐FXIIa; 200 μM substrate peptide, 10 nM α‐FXIIa): did not inhibit | pIC50 ± SE (α‐FXIIa; CTI variant proteins 10^−8 M to 10^−5 M, 200 μM S‐2302, 10 nM α‐FXIIa, initial rate of first 30 min, A405): NIA | IC50 (M) (α‐FXIIa; CTI variant proteins 10^−8 M to 10^−5 M, 200 μM S‐2302, 10 nM α‐FXIIa): NIA

rec‐CTI R42A (natural protein)
IC50 of inhibition of α‐FXIIa enzymatic activity (S‐2302 cleavage) [1]: 0.19 µM | pIC50 of inhibition of α‐FXIIa enzymatic activity (S‐2302 cleavage) [1]: 6.72

RWYVTSRTAGIGPRLPWPELKRR [CTI(21–43)]
IC50 (α‐FXIIa; [4]): 457 µM

rec‐CTI W22A (natural protein)
IC50 of inhibition of α‐FXIIa enzymatic activity (S‐2302 cleavage) [1]: 19 µM | pIC50 of inhibition of α‐FXIIa enzymatic activity (S‐2302 cleavage) [1]: 4.72

rec‐CTI R27A (natural protein)
IC50 of inhibition of α‐FXIIa enzymatic activity (S‐2302 cleavage) [1]: 0.17 µM | pIC50 of inhibition of α‐FXIIa enzymatic activity (S‐2302 cleavage) [1]: 6.78

recombinant CTI (rec‐CTI) (natural protein)
IC50 of inhibition of α‐FXIIa enzymatic activity (S‐2302 cleavage) [1]: 0.12 µM | pIC50 of inhibition of α‐FXIIa enzymatic activity (S‐2302 cleavage) [1]: 6.94

rec‐CTI G30W (natural protein)
IC50 of inhibition of α‐FXIIa enzymatic activity (S‐2302 cleavage) [1]: 0.48 µM | pIC50 of inhibition of α‐FXIIa enzymatic activity (S‐2302 cleavage) [1]: 6.32

IGPRLPWP [CTI(31–38), eight‐mer peptide spanning the loop between helices α1 and α2 (CTI residues 31–38)]
IC50 (M) (α‐FXIIa; [2]): NIA | pIC50 ± SE (α‐FXIIa; [3]): NIA

rec‐CTI R27A/R42A (natural protein)
IC50 of inhibition of α‐FXIIa enzymatic activity (S‐2302 cleavage) [1]: 0.16 µM | pIC50 of inhibition of α‐FXIIa enzymatic activity (S‐2302 cleavage) [1]: 6.8

B1: L35A: rec‐CTI variant, alanine substitution of Leu35 (protein)
chain: SAGTSCVPGWAIPHNPLPSCRWYVTSRTCGIGPRAPWPELKRRCCRELADIPAYCRCTALSILMDGAIPPGPDAQLEGRLEDLPGCPREVQRGFAATLVTEAECNLATISGVAECPWILGGGTMPSK
modifications: assayed as His6-GST fusion (tag omitted); disulfides
pIC50 ± SE (α‐FXIIa; [5]): 5.31 ± 0.05

B2: W37A: rec‐CTI variant, alanine substitution of Trp37 (protein)
chain: B1 chain with A35L, W37A
modifications: assayed as His6-GST fusion (tag omitted); disulfides
pIC50 ± SE (α‐FXIIa; [5]): 6.97 ± 0.06

B3: E39A: rec‐CTI variant, alanine substitution of Glu39 (protein)
chain: B1 chain with A35L, E39A
modifications: assayed as His6-GST fusion (tag omitted); disulfides
pIC50 ± SE (α‐FXIIa; [5]): 6.85 ± 0.06

B4: R42A: rec‐CTI variant, alanine substitution of Arg42 (protein)
chain: B1 chain with A35L, R42A
modifications: assayed as His6-GST fusion (tag omitted); disulfides
pIC50 ± SE (α‐FXIIa; [5]): 6.72 ± 0.15

B5: R42A/R43A: rec‐CTI R42A/R43A double mutant (protein)
chain: B1 chain with A35L, R42A, R43A
modifications: assayed as His6-GST fusion (tag omitted); disulfides
pIC50 ± SE (α‐FXIIa; [5]): 4.98 ± 0.02

B6: R27A/E39A: rec‐CTI double substitution R27A/E39A (protein)
chain: B1 chain with R27A, A35L, E39A
modifications: assayed as His6-GST fusion (tag omitted); disulfides
pIC50 ± SE (α‐FXIIa; [5]): 6.58 ± 0.08

B7: R27A/R42A: rec‐CTI double substitution R27A/R42A (protein)
chain: B1 chain with R27A, A35L, R42A
modifications: assayed as His6-GST fusion (tag omitted); disulfides
pIC50 ± SE (α‐FXIIa; [5]): 6.80 ± 0.05

B8: W22A: rec‐CTI variant, alanine substitution of Trp22 (protein)
chain: B1 chain with W22A, A35L
modifications: assayed as His6-GST fusion (tag omitted); disulfides
pIC50 ± SE (α‐FXIIa; [5]): 4.72 ± 0.24

B9: R27A: rec‐CTI variant, alanine substitution of Arg27 (protein)
chain: B1 chain with R27A, A35L
modifications: assayed as His6-GST fusion (tag omitted); disulfides
pIC50 ± SE (α‐FXIIa; [5]): 6.78 ± 0.04

B10: G30W: rec‐CTI variant, replacement of Gly30 with a tryptophan (protein)
chain: B1 chain with G30W, A35L
modifications: assayed as His6-GST fusion (tag omitted); disulfides
pIC50 ± SE (α‐FXIIa; [5]): 6.32 ± 0.06

B11: G32W: rec‐CTI variant, replacement of Gly32 with tryptophan (protein)
chain: B1 chain with G32W, A35L
modifications: assayed as His6-GST fusion (tag omitted); disulfides
pIC50 ± SE (α‐FXIIa; [5]): 4.89 ± 0.06
